IntAct's records for PubMed 12606577

Tests used:
[1] = target: par6b_mouse Pard6b (UniProt Q9JK83)
[2] = target: pak1_human PAK1 (UniProt Q13153)
pak1_human PAK1, sequence (Q13153 whole entry): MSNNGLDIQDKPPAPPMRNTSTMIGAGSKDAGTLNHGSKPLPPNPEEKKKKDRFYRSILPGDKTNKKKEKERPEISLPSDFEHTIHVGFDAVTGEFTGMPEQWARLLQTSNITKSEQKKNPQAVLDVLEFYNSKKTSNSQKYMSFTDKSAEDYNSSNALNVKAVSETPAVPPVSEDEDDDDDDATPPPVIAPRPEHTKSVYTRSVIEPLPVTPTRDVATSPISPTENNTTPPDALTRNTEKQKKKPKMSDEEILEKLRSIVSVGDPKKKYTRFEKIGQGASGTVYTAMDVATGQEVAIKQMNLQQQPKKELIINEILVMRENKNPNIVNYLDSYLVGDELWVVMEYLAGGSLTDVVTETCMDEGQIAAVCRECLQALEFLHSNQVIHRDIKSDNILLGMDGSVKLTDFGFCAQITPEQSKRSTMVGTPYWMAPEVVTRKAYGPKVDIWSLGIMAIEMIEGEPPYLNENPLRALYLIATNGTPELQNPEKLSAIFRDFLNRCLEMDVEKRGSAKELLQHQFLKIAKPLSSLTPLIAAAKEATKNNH

par6b_mouse Pard6b, sequence (Q9JK83 whole entry): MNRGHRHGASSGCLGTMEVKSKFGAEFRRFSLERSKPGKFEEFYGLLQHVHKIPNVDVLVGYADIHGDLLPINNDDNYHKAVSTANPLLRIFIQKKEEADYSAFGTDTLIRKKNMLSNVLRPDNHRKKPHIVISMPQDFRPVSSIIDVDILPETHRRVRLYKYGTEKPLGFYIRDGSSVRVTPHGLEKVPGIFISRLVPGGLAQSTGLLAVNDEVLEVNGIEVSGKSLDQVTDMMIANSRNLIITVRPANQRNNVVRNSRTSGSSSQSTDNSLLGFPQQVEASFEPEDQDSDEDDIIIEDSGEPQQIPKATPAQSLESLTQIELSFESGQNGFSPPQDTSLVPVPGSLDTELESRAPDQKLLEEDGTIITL
Cell division control protein 42 homolog (Homo sapiens), P60953 Y40K, sequence (P60953 whole entry Y40K): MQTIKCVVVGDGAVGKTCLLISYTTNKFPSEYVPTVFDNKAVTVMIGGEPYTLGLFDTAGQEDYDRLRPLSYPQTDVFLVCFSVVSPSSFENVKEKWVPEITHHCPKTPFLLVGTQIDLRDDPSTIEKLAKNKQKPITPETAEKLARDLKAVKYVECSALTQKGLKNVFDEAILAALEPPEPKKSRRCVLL
Cell division control protein 42 homolog (Homo sapiens), P60953 D38A, sequence (P60953 whole entry D38A): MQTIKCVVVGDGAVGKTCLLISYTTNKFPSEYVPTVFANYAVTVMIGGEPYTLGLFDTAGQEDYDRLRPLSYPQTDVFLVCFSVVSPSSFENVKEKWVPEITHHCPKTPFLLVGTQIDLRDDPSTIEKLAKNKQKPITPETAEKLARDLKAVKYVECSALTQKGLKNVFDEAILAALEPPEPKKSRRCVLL
Cell division control protein 42 homolog (Homo sapiens), P60953 F37A, sequence (P60953 whole entry F37A): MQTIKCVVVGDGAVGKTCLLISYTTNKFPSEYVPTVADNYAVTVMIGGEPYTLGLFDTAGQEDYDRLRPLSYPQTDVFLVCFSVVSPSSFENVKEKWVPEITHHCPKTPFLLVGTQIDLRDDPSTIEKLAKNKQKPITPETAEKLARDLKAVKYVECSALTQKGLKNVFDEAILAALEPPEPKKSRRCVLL

Substance | effect of a mutation on the interaction [1] | effect of a mutation on the interaction [2]
Cell division control protein 42 homolog (Homo sapiens), P60953 F37A | decreasing interaction | 
Cell division control protein 42 homolog (Homo sapiens), P60953 D38A | decreasing interaction | decreasing interaction
Cell division control protein 42 homolog (Homo sapiens), P60953 Y40K | decreasing interaction | decreasing interaction
